The target in assay [1] is T1, myosin from chicken gizzard, dephosphorylated form (chicken, UniProt P10587 2-1979; P02612 2-172; P02607 2-151).
T1 construct: mature; Native protein pelleted by centrifugation; 1 µM in terms of heavy chains; also called myosin dimer
Nature of the assay: co-sedimentation with myosin, immunoblot. The procedure:
(§1) (A); PP1_M, $M110$-(M1-S477) and GST-$M110$-(M377-K976), each at 30 nM were incubated for 15 min at 0° C. with 1 μM myosin and centrifuged. The supernatants (S), resuspended pellets (P) and the suspension before centrifugation (T, total) were electrophoresed on 12% SDS/polyacrylamide gels, transferred to nitrocellulose and immunoblotted with antibodies raised against the PP1_M holoenzyme. No protein was pelleted in the absence of myosin (not shown). The positions of the marker proteins myosin heavy chain (200 kDa), glycogen phosphorylase (97 kDa), bovine serum albumin (66 kDa), ovalbumin (43 kDa), carbonic anhydrase (29 kDa) and soybean trypsin inhibitor (20 kDa) are indicated. […] A small amount of $M110$-(R714-I1004) pelleted in the absence of myosin. […] No other protein was pelleted in the absence of myosin.
Myosin binding assays. Myosin (0.5 mg/ml, 1 µM in terms of myosin heavy chains) in 10 mM Hepes pH 7.5, 50 mM KCl, 5 mM MgCl2, 0.1% (by vol) 2-mercaptoethanol, was mixed with PP1_M, M$21$ subunit, or fragments of the M$110$ and M$21$ subunits, at the concentrations indicated in figure legends. After incubation for 15 min at 0° C., the solutions were centrifuged for 2 min at 13,000×g, the supernatants removed, and the pellets washed twice in 10 mM Hepes pH 7.5, 50 mM KCl, 5 mM MgCl2, 0.1% (by vol) 2-mercaptoethanol before resuspension in 50 mM Tris-HCl pH 7.5, 0.1 mM EGTA, 0.03% (by mass) Brij 35, 0.6 M NaCl, 0.1% (by vol) 2-mercaptoethanol. Aliquots of the supernatant, the resuspended pellet and the suspension before centrifugation were either assayed for myosin P-light chain phosphatase activity or denatured in SDS and analysed by SDS/polyacrylamide gel electrophoresis.
In general terms: Immunoblotting shows a protein as a band on a membrane.

In assay [2] the target is T2, β isoform of PP1c released from rabbit skeletal muscle PP1G (rabbit, UniProt P62143 2-327).
T2 construct: mature; also called PP1 catalytic subunit
The experiment in a line: phosphatase assays and changed crystal form of PP1c.

Assay [3] addresses T2, β isoform of PP1c released from rabbit …. Nature of the assay: cell-based or functional assay.
The target in assay [4] is PP1GL, glycogen-associated form of PP1 in rat hepatic glycogen-protein particles (rat). The experiment in a line: cell-based or functional assay.
Assay [5] has as its target T1, myosin from chicken gizzard, …. Nature of the assay: co-sedimentation with myosin.
The target in assay [6] is PP1M, myosin-associated form of PP1 from chicken gizzard (chicken, UniProt P62207 2-327). Nature of the assay: cell-based or functional assay.
Assay [7] concerns the target T1, myosin from chicken gizzard, …. The experiment in a line: summary of the co-sedimentation experiments. The procedure:
as §1
(§2) Myosin binding assays. Myosin (0.5 mg/ml, 1 µM in terms of myosin heavy chains) in 10 mM Hepes pH 7.5, 50 mM KCl, 5 mM MgCl2, 0.1% (by vol) 2-mercaptoethanol, was mixed with PP1_M, M$21$ subunit, or fragments of the M$110$ and M$21$ subunits, at the concentrations indicated in figure legends. […] Aliquots of the supernatant, the resuspended pellet and the suspension before centrifugation were either assayed for myosin P-light chain phosphatase activity or denatured in SDS and analysed by SDS/polyacrylamide gel electrophoresis.

Assay [8] has the same target. Nature of the assay: co-sedimentation, 30 nM with 1 µM myosin, immunoblot. How it is done: as §1, §2

T2 sequence (P62143 2-327): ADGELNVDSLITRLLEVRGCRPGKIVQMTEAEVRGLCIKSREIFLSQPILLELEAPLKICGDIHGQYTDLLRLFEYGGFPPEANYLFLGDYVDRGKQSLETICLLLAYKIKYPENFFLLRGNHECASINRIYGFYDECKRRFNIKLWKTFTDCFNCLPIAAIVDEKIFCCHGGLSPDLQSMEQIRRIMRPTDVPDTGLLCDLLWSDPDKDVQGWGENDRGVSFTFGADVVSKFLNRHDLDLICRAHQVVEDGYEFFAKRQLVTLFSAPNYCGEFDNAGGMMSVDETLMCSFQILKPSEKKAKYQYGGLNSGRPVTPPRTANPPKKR
T1 sequence (P10587 2-1979, chain 1 of 3): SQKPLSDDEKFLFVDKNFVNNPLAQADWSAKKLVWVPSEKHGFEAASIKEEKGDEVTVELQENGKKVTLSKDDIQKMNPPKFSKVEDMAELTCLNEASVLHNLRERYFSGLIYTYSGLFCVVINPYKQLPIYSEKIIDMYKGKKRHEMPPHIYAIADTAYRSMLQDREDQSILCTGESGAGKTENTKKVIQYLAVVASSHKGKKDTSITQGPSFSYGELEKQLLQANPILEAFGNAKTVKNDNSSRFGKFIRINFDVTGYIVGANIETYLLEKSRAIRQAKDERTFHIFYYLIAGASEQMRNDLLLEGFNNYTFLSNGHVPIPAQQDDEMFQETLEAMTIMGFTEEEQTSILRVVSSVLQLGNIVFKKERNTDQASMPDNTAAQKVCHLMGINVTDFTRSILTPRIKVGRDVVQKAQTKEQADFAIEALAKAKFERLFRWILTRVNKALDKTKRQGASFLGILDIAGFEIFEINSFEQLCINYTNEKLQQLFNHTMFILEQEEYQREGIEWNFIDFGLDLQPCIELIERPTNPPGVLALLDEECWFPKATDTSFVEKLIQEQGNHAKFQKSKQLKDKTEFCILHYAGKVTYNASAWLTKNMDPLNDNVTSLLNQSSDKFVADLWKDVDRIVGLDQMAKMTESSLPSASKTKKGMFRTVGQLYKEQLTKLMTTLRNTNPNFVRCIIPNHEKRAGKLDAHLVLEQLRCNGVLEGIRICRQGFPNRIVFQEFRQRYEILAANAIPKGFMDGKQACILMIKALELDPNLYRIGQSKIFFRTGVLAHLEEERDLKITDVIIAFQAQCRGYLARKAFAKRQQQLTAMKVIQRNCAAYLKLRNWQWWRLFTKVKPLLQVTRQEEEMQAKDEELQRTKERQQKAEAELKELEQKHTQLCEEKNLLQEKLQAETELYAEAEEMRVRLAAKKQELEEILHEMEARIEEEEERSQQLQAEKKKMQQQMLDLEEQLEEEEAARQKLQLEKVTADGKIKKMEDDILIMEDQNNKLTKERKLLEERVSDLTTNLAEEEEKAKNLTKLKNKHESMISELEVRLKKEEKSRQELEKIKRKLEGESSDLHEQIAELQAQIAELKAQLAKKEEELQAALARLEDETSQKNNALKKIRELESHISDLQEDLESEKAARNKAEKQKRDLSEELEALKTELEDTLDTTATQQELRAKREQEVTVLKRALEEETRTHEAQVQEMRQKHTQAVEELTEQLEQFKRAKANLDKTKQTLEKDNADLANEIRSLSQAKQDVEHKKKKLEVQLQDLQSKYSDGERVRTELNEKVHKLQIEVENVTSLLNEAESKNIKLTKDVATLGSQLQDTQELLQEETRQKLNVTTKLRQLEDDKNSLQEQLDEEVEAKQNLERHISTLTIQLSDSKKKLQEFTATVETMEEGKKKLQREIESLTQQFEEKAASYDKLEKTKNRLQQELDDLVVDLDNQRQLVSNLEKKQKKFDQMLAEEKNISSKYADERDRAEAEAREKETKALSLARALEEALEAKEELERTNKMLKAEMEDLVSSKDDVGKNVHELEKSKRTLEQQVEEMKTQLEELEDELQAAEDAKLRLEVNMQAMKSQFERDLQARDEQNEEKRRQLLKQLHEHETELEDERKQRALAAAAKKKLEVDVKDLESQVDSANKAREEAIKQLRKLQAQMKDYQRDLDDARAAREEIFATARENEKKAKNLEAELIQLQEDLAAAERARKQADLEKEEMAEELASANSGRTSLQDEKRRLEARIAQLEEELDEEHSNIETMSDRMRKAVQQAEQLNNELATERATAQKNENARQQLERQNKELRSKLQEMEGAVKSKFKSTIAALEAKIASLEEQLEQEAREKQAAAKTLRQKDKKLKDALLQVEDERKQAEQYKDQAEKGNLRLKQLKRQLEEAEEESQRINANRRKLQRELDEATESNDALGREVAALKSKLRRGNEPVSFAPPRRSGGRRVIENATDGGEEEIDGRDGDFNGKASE
T1 sequence (P02612 2-172, chain 2 of 3): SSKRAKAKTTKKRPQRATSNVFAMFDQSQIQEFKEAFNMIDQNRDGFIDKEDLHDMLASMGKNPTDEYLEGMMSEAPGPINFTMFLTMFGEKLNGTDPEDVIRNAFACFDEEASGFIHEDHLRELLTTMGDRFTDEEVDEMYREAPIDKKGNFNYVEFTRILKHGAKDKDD
T1 sequence (P02607 2-151, chain 3 of 3): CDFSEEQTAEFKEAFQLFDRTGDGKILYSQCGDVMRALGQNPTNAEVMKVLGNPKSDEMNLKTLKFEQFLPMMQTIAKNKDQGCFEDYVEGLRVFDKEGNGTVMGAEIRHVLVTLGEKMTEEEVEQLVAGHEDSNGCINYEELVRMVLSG
Sequence of PP1M, myosin-associated form of PP1 from chicken gizzard (P62207 2-327): as the sequence (P62143 2-327) above

B1: GST-M21 (other, not shown: a dimerising Fc or GST; small tags and cut ends)
chain: MSSLFTRSKEYTRSRKSQSDSPPSSPSPIAKTLRHERLSRLEAATTPATSDSYSDRASSRSSAYSRRENRLAALSSRAEEESNRDYKKLYESALSENQKLKSKLQEAQLELADIKSKLEKAAQQKHEKTSDRSSMLEMEKREKRALERKLSEMEEEMKILTELKSDNQRLKDENGALIRVISKLSK
notes: also called undegraded GST-M21 (47 kDa)
With B1, the binding result in assay [1] was “binds”.

B2: GM-(G63-K80) synthetic peptide (peptide)
peptide: GRRVSFADNFGFNLVSVK
notes: also called peptide 63-80 of GM
As for B2, the binding result in assay [2] is given as “binds”.

B3: M110-(M1-A150), released from GST with thrombin (other)
chain: GSPGMKMADAKQKRNEQLKRWIGSETDLEPPVVKRQKTKVKFDDGAVFLAACSSGDTDEVLKLLHRGADINYANVDGLTALHQACIDDNVDMVKFLVENGANINQPDNEGWIPLHAAASCGYLDIAEFLIGQGAHVGAVNSEGDTPLDIAEEEA
Regarding B3, the “concentration needed to modify the specificity of PP1, relative to M110-(M1-E309)” value in assay [3] stood at 10 fold.

B4: M110[M1-K35] synthetic peptide (peptide)
peptide: MKMADAKQKRNEQLKRWIGSETDLEPPVVKRQKTK
Turning to B4, the “effectiveness at activating the myosin light chain phosphatase activity of PP1c relative to M110[1-38]” value in assay [3] is at least 10000 fold.

B5: M110-(M1-F38) synthetic peptide (peptide)
peptide: MKMADAKQKRNEQLKRWIGSETDLEPPVVKRQKTKVKF
B5: the “phosphorylase phosphatase activity of PP1GL at 10 µM peptide” value in assay [4] is 3.5 fold. Further, in assay [3], the “concentration for half maximal activation relative to M110-(M1-E309)” value was at least 100 fold and the “maximal activation of the myosin light chain phosphatase activity of PP1c” value was determined as 3 fold.

B6: M110-(K933-I1004), C-terminal 72 residues of the chicken gizzard M110 subunit, released from MBP with Factor Xa (other)
chain: KLYEQILAENEKLKAQLHDTNMELTDLKLQLEKTTQRQERFADRSLLEMEKRVSGKSQYLLGGKKSSRKKDI
notes: also called 8.5 kDa M110-(K933-I1004) fragment
For B6, the binding result in assay [1] is “no binding (tested: 100 nM with 1 µM myosin)”.

B7: GST-M110-(M1-S477) (other)
chain: MKMADAKQKRNEQLKRWIGSETDLEPPVVKRQKTKVKFDDGAVFLAACSSGDTDEVLKLLHRGADINYANVDGLTALHQACIDDNVDMVKFLVENGANINQPDNEGWIPLHAAASCGYLDIAEFLIGQGAHVGAVNSEGDTPLDIAEEEAMEELLQNEVNRQGVDIEAARKEEERIMLRDARQWLNSGHISDVRHAKSGGTALHVAAAKGYTEVLKLLIQAGYDVNIKDYDGWTPLHAAAHWGKEEACRILVDNLCDMETVNKVGQTAFDVADEDILGYLEELQKKQNLLHSEKRDKKSPLIESTANMENNQPQKTFKNKETLIIEPEKNASRIESLEQEKADEEEEGKKDESSCSSEEDEEDDSESEAETDKTKPMASVTNAHTASTQAAPAAVTTPTLSSNQGTPTSPVKKFPTSTTKISPKEEERKDESPASWRLGLRKTGSYGALAEITASKEAQKEKDTAGVIRSASSPRLSSAANSISSLIHRD
notes: not shown: glutathione-S-transferase of vector pGEX-KG with the vector linker (thrombin site)
For B7, the binding result in assay [5] is on record as “no binding”.

B8: GM-(G63-N75) synthetic peptide (peptide)
peptide: GRRVSFADNFGFN
notes: 13-residue peptide co-crystallised with PP1γ1; also called GM[63-75]; GM peptide
With B8, in assay [2], the binding result was “binds”.

B9: rabbit GM-(G63-T93) synthetic peptide (peptide)
peptide: GRRVSFADNFGFNLVSVKEFDTWELPSVSTT
As for B9, the “phosphorylase phosphatase activity of PP1GL” value in assay [4] turned out to be 6 fold. Moreover, the “phosphorylase phosphatase activity of PP1M at 10 µM peptide” value in assay [6] is about 7 fold.

B10: M110-(R714-I1004), C-terminal 291 residues of the chicken gizzard M110 subunit (other)
chain: RSTRTREQENEEKEKEEKEKQDKEKQEEKKESETKDDDYRQRYSRTVEEPYHRYRPTSTSTSTSSTSSLSTSTSSLSSSSQLNRPNSLIGITSAYSRSGTKESEREGGKKEEEKEEDKSQPKSIRERRRPREKRRSTGVSFWTQDSDENEQEHQSDSEEGTNKKETQSDSLSRYDTGSLSVSSGDRYDSAQGRSGSQSYLEDRKPYCSRLEKEDSTDFKKLYEQILAENEKLKAQLHDTNMELTDLKLQLEKTTQRQERFADRSLLEMEKRVSGKSQYLLGGKKSSRKKDI
notes: Expressed from pT7-7
B10: the binding result in assay [7] is recorded as “binds”.

B11: GST-M110-(M377-K976), undegraded (other)
chain: MASVTNAHTASTQAAPAAVTTPTLSSNQGTPTSPVKKFPTSTTKISPKEEERKDESPASWRLGLRKTGSYGALAEITASKEAQKEKDTAGVIRSASSPRLSSSLDNKEKEKDNKGTRLAYVAPTIPRRLGSTSDIEEKENRESSNLRTSSSYTRRKWEDDLKKNSSINEGSTYHRSTSNRLWAEDSTEKEKDSAPTAATILVAPTVVSAAASSTTALTTTTAGTLSSTSEVRERRRSYLTPVRDEESESQRKARSRQARQSRRSTQGVTLTDLQEAEKTIGRSRSTRTREQENEEKDKEEKEKQDKEKQEEKKESEVSREDEYKQKYSRTYDETYARYRPVSTSSSSTPSSSSLSTLGSSLYASSQLNRPNSLVGITSAYSRGLTKDNEREGEKKEEEKEGEDKSQPKSIRERRRPREKRRSTGVSFWTQDSDENEQERQSDTEDGSSKRDTQTDSVSRYDSSSTSSSDRYDSLLGRSASYSYLEERKPYGSRLEKDDSTDFKKLYEQILAENEKLKAQLHDTNMELTDLKLQLEKATQRQERFADRSLLEMEKRERRALERRISEMEEELKMLPDLKADNQRLKDENGALIRVISKLSK
notes: also called C-terminal 600 residues of the M110 subunit from rat aorta; not shown: glutathione-S-transferase of vector pGEX-KG with the vector linker
For B11, the binding result in assay [8] is on record as “binds”.

B12: GST-M110-(M1-E309), GST tag not cleaved (other)
chain: MKMADAKQKRNEQLKRWIGSETDLEPPVVKRQKTKVKFDDGAVFLAACSSGDTDEVLKLLHRGADINYANVDGLTALHQACIDDNVDMVKFLVENGANINQPDNEGWIPLHAAASCGYLDIAEFLIGQGAHVGAVNSEGDTPLDIAEEEAMEELLQNEVNRQGVDIEAARKEEERIMLRDARQWLNSGHISDVRHAKSGGTALHVAAAKGYTEVLKLLIQAGYDVNIKDYDGWTPLHAAAHWGKEEACRILVDNLCDMETVNKVGQTAFDVADEDILGYLEELQKKQNLLHSEKRDKKSPLIESTANMEA
notes: as for B7
With B12, in assay [5], the binding result is “no binding”.

B13: M110-(M1-S477), released from GST with thrombin (other)
chain: GSPGMKMADAKQKRNEQLKRWIGSETDLEPPVVKRQKTKVKFDDGAVFLAACSSGDTDEVLKLLHRGADINYANVDGLTALHQACIDDNVDMVKFLVENGANINQPDNEGWIPLHAAASCGYLDIAEFLIGQGAHVGAVNSEGDTPLDIAEEEAMEELLQNEVNRQGVDIEAARKEEERIMLRDARQWLNSGHISDVRHAKSGGTALHVAAAKGYTEVLKLLIQAGYDVNIKDYDGWTPLHAAAHWGKEEACRILVDNLCDMETVNKVGQTAFDVADEDILGYLEELQKKQNLLHSEKRDKKSPLIESTANMENNQPQKTFKNKETLIIEPEKNASRIESLEQEKADEEEEGKKDESSCSSEEDEEDDSESEAETDKTKPMASVTNAHTASTQAAPAAVTTPTLSSNQGTPTSPVKKFPTSTTKISPKEEERKDESPASWRLGLRKTGSYGALAEITASKEAQKEKDTAGVIRSASSPRLSSAANSISSLIHRD
In the case of B13, in assay [1], the binding result is on record as “no binding (tested: 30 nM with 1 µM myosin)”.

Values taken from patent US6884600 (MEDICAL RESEARCH COUNCIL LONDON, dated 2005).
